Protein stability index data for 37 sequences are collected here from the supplement of paper PMC10567573.

The data set in a line: protein stability index of a GFP-peptide fusion (GPS, HEK-293T) (PSI 1-6); higher = more stable. The settings on record: c terminus: a fixed tail appended.

± gives the standard deviation.
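Further: 24-mer peptide tiles fused after GFP, lentivirally expressed, FACS-sorted into six equal bins by GFP/DsRed ratio, decoded by Illumina sequencing, PSI is the read-weighted mean bin number.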

For PTLGGGFHVNLGKESRAQTLQNGR [BRF1], the protein stability index was found to be 4.04 ± 0.47 (treatment: DMSO) and 4.14 ± 0.33 (treatment: MLN4924 1 uM, 8 h).

As for REVRRAQARLLNPSATRAKPGPQD [NOP53], the protein stability index (treatment: DMSO) stood at 4.75 ± 0.28 and the protein stability index (treatment: MLN4924 1 uM, 8 h) was 4.66 ± 0.14.

Turning to DVTDEHGEREPFAETDEHTGANTK [FAM9B], the protein stability index was 5.49 ± 0.12 (treatment: DMSO) and 5.5 ± 0.065 (treatment: MLN4924 1 uM, 8 h).

Consider FKAWLHNSGTDQEQIHLLLSSQCF [M1AP], for which the protein stability index worked out at 2.6 ± 0.66 (treatment: DMSO) and 2.43 ± 0.39 (treatment: MLN4924 1 uM, 8 h).

VITLDPQTASRSLVLSEDRKSVRY [TRIM15]: the protein stability index came out at 3.44 ± 0.2 (treatment: DMSO) and 3.64 ± 0.14 (treatment: MLN4924 1 uM, 8 h).

Regarding FLLFLLTGIVSVAFLLLPLPDELG [MOSPD3], the protein stability index by setting is: (treatment: DMSO) 3.36 ± 0.39; (treatment: MLN4924 1 uM, 8 h) 2.89 ± 0.9.

As for GRKDITSILRAPAYPLELQGQPDP [MOSPD3], the protein stability index reads like this: (treatment: DMSO) 4.26 ± 0.15; (treatment: MLN4924 1 uM, 8 h) 4.28 ± 0.35.

For the sequence DRFLAGVPTPKSHLQLLGAVCMFL [CCND2], the protein stability index by setting is: (treatment: DMSO) 2.63 ± 0.2; (treatment: MLN4924 1 uM, 8 h) 2.27 ± 0.21.

Take VLLTQIESKKHQVETAFERLQQEL [TRIM15]: the protein stability index by setting is: (treatment: DMSO) 2.73 ± 0.27; (treatment: MLN4924 1 uM, 8 h) 2.77 ± 0.38.

For the setting “treatment: MLN4924 1 uM, 8 h”, AGNKAALLDQIREGAQLKKVEQNS [WASL] yielded a protein stability index of 5.24 ± 0.4.

On to KRQVPREQAQAYAERLGVTFFEVS [RAB40A], for which the protein stability index worked out at 3.11 ± 0.17 (treatment: DMSO) and 3.21 ± 0.31 (treatment: MLN4924 1 uM, 8 h).

In the case of SARDCKFTGNFFYNYMMGIEFNPR [DHCR7], the protein stability index amounted to 2.24 ± 0.44 (treatment: DMSO) and 2.07 ± 0.59 (treatment: MLN4924 1 uM, 8 h).

As for RMKKNGMEMTRPTPPHLTSAMAEN [NOL4L], the protein stability index reads like this: (treatment: DMSO) 4.41 ± 0.071; (treatment: MLN4924 1 uM, 8 h) 4.37 ± 0.29.

Sequence VSSSEQLQSCQAEIIELRRTVNAL [KRT34] had a protein stability index (treatment: DMSO) of 3.02 ± 0.2 and a protein stability index (treatment: MLN4924 1 uM, 8 h) of 2.77 ± 0.3.

Turning to LVNPTCQVLVKDFTFEGFSRLRFL [ZER1], the protein stability index is 2.02 ± 0.23 (treatment: DMSO) and 2.27 ± 0.29 (treatment: MLN4924 1 uM, 8 h).

In the case of GAYKSSTICYCPEKGTWTELEGDV [KLHL14], the protein stability index turned out to be 4.22 ± 0.32 (treatment: DMSO) and 4.38 ± 0.32 (treatment: MLN4924 1 uM, 8 h).

As to VAQFVLTEGNPRWEQTHLTYRIEN [MMP1], the protein stability index amounted to 2.35 ± 0.36 (treatment: DMSO) and 2.35 ± 0.43 (treatment: MLN4924 1 uM, 8 h).

In the case of LRQFDLAWQYGPCTGITRLQRWCR [POLD4], the protein stability index was found to be 2.26 ± 0.21 (treatment: DMSO) and 2.32 ± 0.27 (treatment: MLN4924 1 uM, 8 h).

Take SSSFTSIASEWFLIANRSYKVSAA [SLC22A15]: the protein stability index by setting is: (treatment: DMSO) 2.26 ± 0.47; (treatment: MLN4924 1 uM, 8 h) 2.42 ± 0.31.

LIKLGLERFHGVGILGFNSAEWFI [ACSBG2]: the protein stability index turned out to be 1.91 ± 0.25 (treatment: DMSO) and 2.13 ± 0.65 (treatment: MLN4924 1 uM, 8 h).

As for RLLQASGGGLTGVSGSHFVGVDGV [PCDHGA10], the protein stability index is, setting by setting: (treatment: DMSO) 2.78 ± 0.46; (treatment: MLN4924 1 uM, 8 h) 3.01 ± 0.28.

On to MAKFVIRPATAADCSDILRLIKEL [SAT1], for which the protein stability index amounted to 2.04 ± 0.16 (treatment: DMSO) and 2.22 ± 0.22 (treatment: MLN4924 1 uM, 8 h).

With MQATADSTKMDCVWSNWKSQAIDL [RTN1], the protein stability index is, setting by setting: (treatment: DMSO) 3.17 ± 0.11; (treatment: MLN4924 1 uM, 8 h) 3.41 ± 0.36.

As to RPISGTAVAHKTPRCPGSVNEKLP [SMOC2], the protein stability index was found to be 4.53 ± 0.14 (treatment: DMSO) and 4.59 ± 0.26 (treatment: MLN4924 1 uM, 8 h).

As for AATQVFFALGLGFGGVIAFSSYNK [SLC6A17], the protein stability index worked out at 2.64 ± 0.43 (treatment: DMSO) and 2.83 ± 0.67 (treatment: MLN4924 1 uM, 8 h).

For CEENEQSLPPPAGLNSSWVELPMN [BNIP3L], the protein stability index by setting is: (treatment: DMSO) 4.65 ± 0.34; (treatment: MLN4924 1 uM, 8 h) 4.41 ± 0.25.

For the sequence PELTITSLFSPVTEDSPLGTVVAL [PCDHGA10], the protein stability index stood at 2.56 ± 0.26 (treatment: DMSO) and 2.72 ± 0.33 (treatment: MLN4924 1 uM, 8 h).

Turning to LATSPITVGDLGIVRRRSRDVPES [YJU2B], the protein stability index was found to be 4.42 ± 0.12 (treatment: DMSO) and 4.42 ± 0.2 (treatment: MLN4924 1 uM, 8 h).

With NNFSPLHLAVDKNTTCVGRYPVCK [FEM1C], the protein stability index is, setting by setting: (treatment: DMSO) 3.42 ± 0.15; (treatment: MLN4924 1 uM, 8 h) 3.52 ± 0.12.

With RTNLPIFKLKESCVRRRYSDFEWL [SNX12], the protein stability index (treatment: DMSO) turned out to be 2.27 ± 0.29 and the protein stability index (treatment: MLN4924 1 uM, 8 h) stood at 2.74 ± 0.56.

Take MTVGILSNSLAIAILMKAYQRFRQ [PTGFR]: the protein stability index worked out at 2.17 ± 0.28 (treatment: DMSO) and 2.2 ± 0.31 (treatment: MLN4924 1 uM, 8 h).

As for SYDELCFLEQRPQSPTLEFLLRNS [EDARADD], the protein stability index runs as follows: (treatment: DMSO) 3.1 ± 0.2; (treatment: MLN4924 1 uM, 8 h) 3 ± 0.1.

Take SEPFLTPYLLGPDKNLTEREVFNE [SLC19A2]: the protein stability index reads like this: (treatment: DMSO) 4.8 ± 0.053; (treatment: MLN4924 1 uM, 8 h) 4.83 ± 0.062.

The sequence PKDENERSTCNVVQDEFLDTPCTN [DLC1] came in with a protein stability index (treatment: DMSO) of 5.45 ± 0.15 and a protein stability index (treatment: MLN4924 1 uM, 8 h) of 5.41 ± 0.13.

In the case of VRSKYNDDIRKGIVLLEELLPKGS [FIS1], the protein stability index by setting is: (treatment: DMSO) 2.87 ± 0.04; (treatment: MLN4924 1 uM, 8 h) 2.84 ± 0.14.

For the sequence HRYIAYMANQEAAIQAFLDKCSAP [IQUB], the protein stability index came to 2.51 ± 0.2 (treatment: DMSO) and 2.38 ± 0.46 (treatment: MLN4924 1 uM, 8 h).

YRFYFYMWKFVSPLCMAVLTTASI [SLC6A17] came in with a protein stability index (treatment: MLN4924 1 uM, 8 h) of 4.42 ± 0.71.
